Measurements from patent US20190225690A1 (CROWN BIOSCIENCE TAICANG, published 2019).
Read-outs that look alike come from different tables or passages of the source.

What was measured:
human CTLA4-mFc [1] = target: T1, human CTLA4-mFc (human); assay: ELISA blockage of biotinylated CD80-mFc binding to coated human CTLA4-mFc
T1 construct: Extracellular domain of human CTLA4 fused with mouse Fc; also called hCTLA4-mFc
Experimental: (§1) ELISA based ligand blockage analysis was conducted via blocking biotinylated human CD80-mFc from binding to human CTLA4-mFc. CTLA4-mFc antigen (CrownBio) was suspended in PBS (Hyclone, Cat No: SH30256.01B) buffer (2 μg/ml, 100 μl/well) and coated on the 96 well plate (Costar, Cat No: 9018) 4° C. overnight. Plates were washed 3 times using washing buffer: PBS+0.05% Tween 20 (Sigma, Cat No: P1379). 200 μl of blocking buffer (PBS+1% BSA (Roche, Cat No: 738328)) was added to each well, incubated at 37° C. for 1 hour, and washed 3 times. Various concentrations (suitable dilutions of hybridoma supernatant in PBS) of the anti-CTLA4 antibodies were added to the wells (100 μl/well) and incubated at 37° C. for 1 hour. Ligand was added (0.1 μg/ml CD80-mFc-biotin, 100 μl/well), incubated at 37° C. for 2 hours, and washed 3 times. Secondary antibody (Avidin HRP, eBioscience Cat No: E07418-1632, 1:500, 100 μl/well) was added, incubated at 37° C. for 0.5 hour, and washed 3 times. TMB (Sigma, Cat No: T0440, 100 μl/well) was added, and incubated for 3 min at room temperature. To stop the reaction, 2N H₂SO₄ (100 μl/well), was added. The colorimetric signals were developed and read at 450 nm using an Auto Plate SpectraMax Plus (Supplier: Molecular Devices; Model: MNR0643; Software: SoftMax Pro v5.4).
The purified hybridoma antibodies were characterized further based on ELISA and FACS analyses. […]

mouse CTLA4 = mouse CTLA4 (mouse, UniProt P09793 36-161, limits assumed); assay: protein based ELISA and other assays, not named
[2] = target: T2, human CTLA4 (construct not stated) (human, UniProt P16410 36-161, limits assumed); assay: SPR (Biacore 3000), antibody captured by anti-mouse Fc mAb, CTLA4 as analyte
T2 sequence (looked up): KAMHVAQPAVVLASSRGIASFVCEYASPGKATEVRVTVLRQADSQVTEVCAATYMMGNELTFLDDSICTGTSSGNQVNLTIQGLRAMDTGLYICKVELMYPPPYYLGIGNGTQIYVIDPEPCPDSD
Experimental: (§2) To further characterize the binding characteristics of the antibodies, the hybridoma antibodies were profiled using Biacore (Biacore 3000, GE) to elucidate binding kinetics and calculate equilibrium binding constants. This assay was performed by capture method, using the mouse antibody capture kit (BR-1008-38, GE). After diluting anti-mouse Fc mab to 25 μg/ml in pH 5.0 immobilization buffer, immobilization was conducted with the parameters shown in Table 9 at a flow rate of 5 μl/min. The kinetic runs were done by 1) injecting ligand for typical 0.5-1 min at flow rate of 10 μl/min.; 2) injecting analytes of choice for typical 3 min followed by dissociation in running buffer (1×PBS-P20) for typical 5-10 min at flow rate of 30 μl/min.; and 3) injecting regeneration solution 10 mM Glycine pH 1.7 for typical 1-2 min at flow rate of 10 μl/min.

[3] = target: T3, human CTLA4 on hCTLA4-293T cells (human, UniProt P16410 36-223); assay: FACS on hCTLA4-293T cells, purified murine antibody
T3 construct: whole, on cells
T3 sequence (looked up): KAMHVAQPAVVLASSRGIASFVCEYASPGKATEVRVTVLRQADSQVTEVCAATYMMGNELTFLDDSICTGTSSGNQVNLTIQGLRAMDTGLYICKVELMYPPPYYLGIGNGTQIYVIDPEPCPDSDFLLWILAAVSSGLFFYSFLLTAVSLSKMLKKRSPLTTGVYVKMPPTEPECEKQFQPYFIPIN
Experimental: (§3) The cells were incubated with the indicated antibody (20 μg/ml with the dilution of 1/5) at 4° C. for 1 hour. Cells were washed three times with FACS buffer. A secondary antibody (PE Goat anti-mouse: 1:200; PE mouse anti-human: 1:10) was added to the cells at 100 μl/well, and incubated at 4° C. for 40 min. Cells were washed three times with FACS buffer and analyzed by FACS Array.
(§4) The purified hybridoma antibodies were characterized further based on ELISA and FACS analyses. The methods applied were similar to those described above in Example 2 except that in these cases, purified antibodies were used to measure EC50 and IC50.

[4] = target: T3, human CTLA4 on hCTLA4-293T cells; assay: FACS blockage of biotinylated human CD80 binding to hCTLA4-293T cells
Experimental: (§5) Various concentrations of the testing hybridoma antibodies were added to the cell suspension and incubated at 4° C. for 60 minutes in 96 well plates. Biotin-labeled CD80 protein was added into the wells and incubated at 4° C. for 60 minutes. […] Flow cytometric analyses were performed using a FACS Array.
as §4

human CTLA4-hFc [5] = target: T4, human CTLA4-hFc (human); assay: ELISA, purified murine antibody on coated human CTLA4-hFc
T4 construct: Extracellular domain of human CTLA4 fused with a human Fc tag; also called hCTLA4-hFc
Experimental: ELISA binding analysis was conducted using human CTLA4-hFc. 96-well plates (Costar, Cat No: 9018) were coated with 100 μl of 2 μg/ml CTLA4-hFc (CrownBio) in coating buffer (PBS, Hyclone, Cat No: SH30256.01B) overnight at 4° C. The wells were aspirated and non-specific binding sites were blocked by adding 200 μl of blocking buffer with 1% (w/v) of bovine serum albumin (BSA, Roche, Cat No: 738328) and incubating for 1 hour at 37° C. After the plates are washed three times with wash buffer (PBS with 0.05% (v/v) TWEEN-20™ (Sigma, Cat No: P1379)), 100 μl/well of a suitable dilutions of hybridoma supernatant in blocking buffer were added and incubated at room temperature for 1 hour. The plates were washed and incubated with 100 μl/well of Goat anti-Mouse IgG (H+L) (Thermo, Cat No: 31432) in blocking buffer for 60 min. After the plates were washed, 100 μl/well of substrate solution TMB (eBioscience, Cat No: 00-4201-56) was added and the plates were incubated for 2 min at room temperature. 100 μl/well of stop solution (2N H₂SO₄) was added to stop the reaction. The colorimetric signals were developed and read at 450 nm using a Auto Plate SpectraMax Plus (Supplier: Molecular Devices; Model: MNR0643; Software: SoftMax Pro v5.4). Through this method, hybridoma cell lines that produce antibodies highly specifically binding to the human CTLA4 protein were repeatedly selected. […]

[6] = target: T3, human CTLA4 on hCTLA4-293T cells; assay: FACS on hCTLA4-293T cells, humanized antibody
Experimental: as §3
(§6) After generation and purification of humanized 6F3-hIgG1 and 10B10-hIgG1 antibodies, the binding and specificity of the antibodies were determined using ELISA-based binding and CTLA4/CD80 blockage analyses, as well as FACS-based binding and CTLA4/CD80 blockage analyses. The methods used were similar to those described above in EXAMPLE 4.

[7] = target: T2, human CTLA4 (construct not stated); assay: SPR (Biacore 3000), capture method as in Example 5, CTLA4 as analyte
Experimental: as §2
The binding kinetics between CTLA4 and humanized CTLA4 antibodies were measured by Biacore3000 as described in Example 5. The dissociation constant, KD, was calculated from the determined rate constants by the relation KD=kd/ka.

human CTLA4-mFc [8] = target: T1, human CTLA4-mFc; assay: ELISA blockage of biotinylated CD80-mFc binding to coated human CTLA4-mFc; remark: listed apart in the source
Experimental: as §1, with “Secondary antibody (Avidin HRP, eBioscience Cat No: E07418-1632, 1:500, 100 μl/well) was added, incubated at 37° C. for 0.5 hour, and washed 3 times. TMB (Sigma, Cat No: T0440, 100 μl/well) was added, and incubated for 3 min at room temperature. To stop the reaction, 2N H₂SO₄ (100 μl/well), was added.” left out
After generation and purification of humanized 6F3-hIgG1 and 10B10-hIgG1 antibodies, the binding and specificity of the antibodies were determined using ELISA-based binding and CTLA4/CD80 blockage analyses, as well as FACS-based binding and CTLA4/CD80 blockage analyses. […]

[9] = target: T3, human CTLA4 on hCTLA4-293T cells; assay: FACS blockage of biotinylated human CD80 binding to hCTLA4-293T cells; remark: listed apart in the source
Experimental: as §5, §6

human CTLA4-hFc [10] = target: T4, human CTLA4-hFc; assay: ELISA, humanized antibody on coated human CTLA4

B1: 10B10 murine (antibody, V domains shown)
VH: DVQLQESGPGLVTPSQSLSLTCSVTGYSITSGYSWNWIRQFPGNKLEWMGYIRFDGNNNYNPFLKNRISITRDTSENQFFLKLNSVTTEDTATYYCARNYGTWGAMDFWGQGTSVTVSS
VL: DIVLTQSPSSLSASLGGKVTITCKTSQDINKYMAWYQHKPGKGPRLLIYYTSILQPGIPSRFSGSGSGTDYSFSINNLEPEDIATYYCQQYDNLNTFGGGTMLEIK
notes: Mouse monoclonal antibody purified from hybridoma supernatant on Protein G; also called murine antibody 10B10; anti-CTLA4 hybridoma antibody 10B10
B1 was tested, and the IC50 (human CTLA4-mFc [1]) was 0.594 µg/mL, the binding result (mouse CTLA4) was “no binding” and the Kd [2] was 0.219 nM. For the same binder, the koff [2] was 0.000152 s⁻¹, the kon [2] was 693000 M⁻¹ s⁻¹ and the EC50 [3] was 0.305 µg/mL. The IC50 [4] was 0.511 µg/mL and the EC50 (human CTLA4-hFc [5]) was 0.0127 µg/mL.

B2: 6F3 humanized (antibody, human IgG1, kappa, V domains shown)
VH: QVQLVQSGAEVKKPGSSVKVSCKASGYTFTDYEMHWVRQAPGQGLEWIGVIDPETGGITYNQKFKGRATLTADKSTSTAYMELSSLRSEDTAVYYCTRRGARATVYNYVMDYWGQGTLVTVSS
VL: DIQMTQSPSSLSASVGDRVTITCRASENIHNYLAWYQQKPGKAPKLLVYNAKTLGDGVPSRFSGSGSGTDYTLTISSLQPEDFATYYCQHFWSTPWTFGGGTKVEIKR
notes: Humanized IgG1, expressed in Freestyle 293 cells; also called h6F3-IgG1; humanized 6F3-hIgG1
Work on B2 yielded an EC50 [6] of 2.33 µg/mL, a Kd [7] of 0.441 nM and a koff [7] of 0.00013 s⁻¹. For the same binder, the kon [7] was 295000 M⁻¹ s⁻¹, the IC50 (human CTLA4-mFc [8]) was 0.295 µg/mL and the IC50 [9] was 0.435 µg/mL. The EC50 (human CTLA4-hFc [10]) was 0.00201 µg/mL.

B3: 10B10 humanized (antibody, human IgG1, kappa, V domains shown)
VH: QVQLQESGPGLVKPSQTLSLTCAVSGYSITSGYSWNWIRQPPGKGLEWMGYIRFDGNNNYNPFLKNRITISRDTSKNQFSLKLSSVTAADTAVYYCARNYGTWGAMDFWGQGTLVTVSS
VL: DIQLTQSPSSLSASVGDRVTITCKTSQDINKYMAWYQQKPGKAPKLLIYYTSILQPGVPSRFSGSGSGTDYTFTISSLQPEDIATYYCQQYDNLNTFGGGTKVEIKR
notes: Humanized IgG1, expressed in Freestyle 293 cells; also called h10B10-IgG1; humanized 10B10-hIgG1
B3 gave an EC50 [6] of 5.28 µg/mL, a Kd [7] of 0.273 nM and a koff [7] of 0.000113 s⁻¹. For the same binder, the kon [7] was 414000 M⁻¹ s⁻¹, the IC50 (human CTLA4-mFc [8]) was 0.285 µg/mL and the IC50 [9] was 0.0253 µg/mL. The EC50 (human CTLA4-hFc [10]) was 0.00293 µg/mL.

B4: 6F3 murine (antibody, V domains shown)
VH: QVKLQESGAELVRPGASVTLSCKASGYTFTDYEMHWMKQTPVHGLEWIGVIDPETGGITYNQKFKGKATLTADKSSSTAYMEFLSLTSEDSAVYYCTRRGARATVYNYVMDYWGQGTSVTVSS
VL: DIVMTQTTASLSASVGETVTITCRASENIHNYLAWYQQKQGRSPQLLVYNAKTLGDGVPSRFSGSGSGTQYSLKINSLQPEDFGSYYCQHFWSTPWTFGGGTKLEIK
notes: Mouse monoclonal antibody purified from hybridoma supernatant on Protein G; also called murine antibody 6F3; anti-CTLA4 hybridoma antibody 6F3
With B4 the IC50 (human CTLA4-mFc [1]) was 0.526 µg/mL, the binding result (mouse CTLA4) was “no binding” and the Kd [2] was 0.409 nM. The koff [2] was 0.000244 s⁻¹, the kon [2] was 598000 M⁻¹ s⁻¹ and the EC50 [3] was 1.18 µg/mL. For the same binder, the IC50 [4] was 0.526 µg/mL and the EC50 (human CTLA4-hFc [5]) was 0.025 µg/mL.
